# Values joined by “and” are separate entries in the source; they are usually repeats but may differ in a detail not shown here. Equal values may be shown once. Read-outs that look alike come from different tables or passages of the source.
# What was measured:
# [1] = target: T1, human SLC34A2 (human, UniProt O95436 1-690); experiment: FACS, RMG-1 cells
# T1 sequence (looked up): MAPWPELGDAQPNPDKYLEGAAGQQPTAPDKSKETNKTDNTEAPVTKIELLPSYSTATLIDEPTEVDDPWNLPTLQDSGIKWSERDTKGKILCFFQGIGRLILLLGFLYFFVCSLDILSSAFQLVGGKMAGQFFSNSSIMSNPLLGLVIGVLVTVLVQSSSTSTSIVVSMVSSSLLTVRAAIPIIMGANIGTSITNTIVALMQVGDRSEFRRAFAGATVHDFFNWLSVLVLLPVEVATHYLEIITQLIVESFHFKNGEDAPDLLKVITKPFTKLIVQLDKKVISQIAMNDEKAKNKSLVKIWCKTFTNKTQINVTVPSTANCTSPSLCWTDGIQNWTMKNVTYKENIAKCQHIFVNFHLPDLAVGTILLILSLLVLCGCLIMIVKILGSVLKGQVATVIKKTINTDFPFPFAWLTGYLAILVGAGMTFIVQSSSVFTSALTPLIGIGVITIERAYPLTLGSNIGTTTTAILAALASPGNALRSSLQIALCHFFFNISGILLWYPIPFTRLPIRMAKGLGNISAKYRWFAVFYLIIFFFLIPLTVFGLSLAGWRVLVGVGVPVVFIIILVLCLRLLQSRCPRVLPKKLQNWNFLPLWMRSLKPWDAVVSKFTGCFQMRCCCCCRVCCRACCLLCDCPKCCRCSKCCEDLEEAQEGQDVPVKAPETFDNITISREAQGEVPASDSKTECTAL
# [2] = target: T1, human SLC34A2; experiment: FACS, RMG-1 cells; remark: listed apart in the source
# [3] = target: T1, human SLC34A2; experiment: FACS, RMG-1 cells; remark: listed apart in the source
# [4] = target: T1, human SLC34A2; experiment: FACS, OVCAR3 cells
# [5] = target: T1, human SLC34A2; experiment: FACS, OVCAR3 cells; remark: listed apart in the source
# [6] = target: T1, human SLC34A2; experiment: FACS, OVCAR3 cells; remark: listed apart in the source
# [7] = target: T1, human SLC34A2; experiment: FACS, OVCAR3 cells; remark: listed apart in the source
# [8] = target: T1, human SLC34A2; experiment: FACS, HEK293/human SLC34A2 cells
# [9] = target: T2, mouse SLC34A2 (mouse, UniProt Q9DBP0 1-697); experiment: FACS, HEK293/Mouse SLC34A2 cells
# T2 construct: whole, on cells
# T2 sequence (looked up): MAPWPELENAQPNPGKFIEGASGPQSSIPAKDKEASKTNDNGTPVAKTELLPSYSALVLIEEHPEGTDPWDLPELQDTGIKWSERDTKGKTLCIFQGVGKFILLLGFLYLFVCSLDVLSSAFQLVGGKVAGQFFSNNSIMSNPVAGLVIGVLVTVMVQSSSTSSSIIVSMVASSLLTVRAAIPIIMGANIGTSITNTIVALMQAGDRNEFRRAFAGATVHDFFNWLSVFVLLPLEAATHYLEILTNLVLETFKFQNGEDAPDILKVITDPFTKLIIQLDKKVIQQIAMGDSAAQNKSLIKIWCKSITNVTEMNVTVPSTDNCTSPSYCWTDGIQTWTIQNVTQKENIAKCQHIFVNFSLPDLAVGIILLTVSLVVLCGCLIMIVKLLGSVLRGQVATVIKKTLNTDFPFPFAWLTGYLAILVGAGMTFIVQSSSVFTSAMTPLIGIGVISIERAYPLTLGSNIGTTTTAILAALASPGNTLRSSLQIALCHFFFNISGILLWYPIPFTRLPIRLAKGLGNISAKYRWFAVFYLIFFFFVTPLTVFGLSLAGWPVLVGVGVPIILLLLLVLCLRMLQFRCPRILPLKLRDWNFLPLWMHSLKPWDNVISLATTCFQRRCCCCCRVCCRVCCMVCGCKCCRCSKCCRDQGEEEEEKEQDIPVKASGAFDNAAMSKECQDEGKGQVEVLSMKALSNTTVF
# [10] = target: T1, human SLC34A2; experiment: FACS, HEK293/human SLC34A2 cells; remark: listed apart in the source
# [11] = target: T3, Rhesus SLC34A2 (Rhesus, UniProt F7HDA3 1-690); experiment: FACS, HEK293/Rhesus SLC34A2 cells
# T3 construct: whole, on cells
# T3 sequence: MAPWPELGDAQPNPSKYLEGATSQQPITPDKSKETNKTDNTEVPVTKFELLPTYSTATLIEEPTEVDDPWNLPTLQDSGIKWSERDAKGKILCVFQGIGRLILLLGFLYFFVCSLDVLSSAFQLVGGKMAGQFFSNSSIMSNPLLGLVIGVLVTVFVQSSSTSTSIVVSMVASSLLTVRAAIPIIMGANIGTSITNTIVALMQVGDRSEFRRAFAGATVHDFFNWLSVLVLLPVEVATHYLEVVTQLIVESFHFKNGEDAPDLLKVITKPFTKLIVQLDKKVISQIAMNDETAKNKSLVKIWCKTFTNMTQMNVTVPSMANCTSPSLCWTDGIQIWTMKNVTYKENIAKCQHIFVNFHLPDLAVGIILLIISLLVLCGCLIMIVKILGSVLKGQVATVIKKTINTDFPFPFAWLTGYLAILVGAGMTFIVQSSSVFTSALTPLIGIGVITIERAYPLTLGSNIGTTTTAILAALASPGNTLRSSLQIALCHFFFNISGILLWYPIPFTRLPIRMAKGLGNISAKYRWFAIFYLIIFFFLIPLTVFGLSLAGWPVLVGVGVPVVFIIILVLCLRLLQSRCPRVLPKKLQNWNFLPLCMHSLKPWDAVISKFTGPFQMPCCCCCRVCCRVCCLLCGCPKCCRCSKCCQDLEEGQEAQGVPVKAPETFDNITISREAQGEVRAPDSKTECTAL
# [12] = target: T3, Rhesus SLC34A2; experiment: FACS, HEK293/Rhesus SLC34A2 cells; remark: listed apart in the source
binder,measurement,setting,value
"XMT-1536 (antibody, INN chains, looked up, V domains shown, rilsodotin auristatin payload) VH: QVQLVQSGAEVVKPGASVKMSCKASGYTFTGYNIHWVKQAPGQGLEWIGAIYPGNGDTSYKQKFRGRATLTADTSTSTVYMELSSLRSEDSAVYYCARGETARATFAYWGQGTLVTVSS VL: DIQMTQSPSSLSASVGDRVTITCSASQDIGNFLNWYQQKPGKTVKVLIYYTSSLYSGVPSRFSGSGSGTDYTLTISSLQPEDFATYYCQQYSKLPLTFGQGTKLELK",EC50,[1],4.87 nM
same,Top (MFI),[1],9110 MFI
same,EC50,[2],7.17 nM
same,Top,[2],9940 MFI
same,EC50,[3],7.2 nM
same,EC50,[4],4.31 nM and 3.99 nM
same,Top (MFI),[4],40200 MFI and 26700 MFI
same,EC50,[5],2.68 nM
same,Top (MFI),[5],32400 MFI
same,EC50,[6],10.3 nM
same,Top,[6],22500 MFI
same,EC50,[7],6.8 nM
same,EC50,[8],2.5 nM
same,Top (MFI),[8],27700 MFI
same,EC50,[9],6.13 nM
same,EC50,[10],4.27 nM
same,EC50,[11],2.54 nM
same,Top (MFI),[11],11900 MFI
same,EC50,[12],2.6 nM
same,Top (MFI),[12],11500 MFI

# — patent publication US20240301052A1 (LANOVA MEDICINES DEVELOPMENT, published 2024)
